± gives the uncertainty stated by the source.
Test: amyloid nucleation score (Sup35N fusion, yeast selection) (log enrichment); library NNK1; higher = more nucleation; inactive = no reads after selection
Method in brief: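 After 24 hours of induction with 100 μM copper sulfate, psi-negative yeast expressing peptides of 20 random codons fused to Sup35N were grown for 7 days at 30°C on medium lacking adenine and uracil. Input and output plasmid inserts were sequenced with Illumina, and sequences with under 100 input reads were discarded. Scores for nucleation are the DiMSum log enrichment of output over input reads, centred on the mode score of non-aggregating sequences.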

Q: With LYLMGVRVMGNSICTLVRRL as the substance, how does the amyloid nucleation score read?
A: The amyloid nucleation score was “inactive”.

Q: Which amyloid nucleation score does the source give for LYMYSLSFLMGGNANHRLGM here?
A: The amyloid nucleation score was 1.98 ± 0.16.

Q: With LYRCYESG as the substance, how does the amyloid nucleation score read?
A: Its amyloid nucleation score is -0.378 ± 0.27.

Q: Which amyloid nucleation score does the source give for LYSKLSALEFMQLAIQSHLD here?
A: The amyloid nucleation score was 1.96 ± 0.15.

Q: For LYSSLSYTKFMCAG, which amyloid nucleation score is on record?
A: The amyloid nucleation score was -0.51 ± 0.81.

Q: With LYSVISPLSEDTYDCLSVPY as the substance, how does the amyloid nucleation score read?
A: The amyloid nucleation score was 0.297 ± 0.79.

Q: Which amyloid nucleation score does the source give for LYSVRLRSVSK here?
A: Its amyloid nucleation score is -0.376 ± 0.25.

Q: For LYVEYKRAMCVMGVSLWVN, which amyloid nucleation score is on record?
A: The amyloid nucleation score was 0.224 ± 0.19.

Q: For LYVLYAIRFLSFCSFWRYLI, which amyloid nucleation score is on record?
A: The amyloid nucleation score was -1.15 ± 0.51.

Q: For LYVMRKSDMMLDFRNAANVG, which amyloid nucleation score is on record?
A: The amyloid nucleation score was -0.142 ± 0.23.

Q: Which amyloid nucleation score does the source give for LYYCSFRYMIKTRNLNVTFL here?
A: Its amyloid nucleation score is 6.4 ± 0.084.

Q: Which amyloid nucleation score does the source give for LYYFCLAINFSLGEGTAFVQ here?
A: Its amyloid nucleation score is -0.133 ± 0.84.

Q: With MADEWLCQKCGSRVT as the substance, how does the amyloid nucleation score read?
A: The amyloid nucleation score was -0.207 ± 0.59.

Q: Which amyloid nucleation score does the source give for MAFLYFMFILFHARCLIRLP here?
A: The amyloid nucleation score was -0.177 ± 0.65.

Q: For MAGPYLVERRSMWASNARAE, which amyloid nucleation score is on record?
A: Its amyloid nucleation score is -1.07 ± 1.4.

Q: With MARPLRIHYNYSGSNDLRVR as the substance, how does the amyloid nucleation score read?
A: The amyloid nucleation score was -0.444 ± 0.4.

Q: Which amyloid nucleation score does the source give for MAVLGALNRSGNMGVGLFYN here?
A: Its amyloid nucleation score is -0.647 ± 0.4.

Q: Which amyloid nucleation score does the source give for MCDDHWFPAIYKRLVSSNKQ here?
A: The amyloid nucleation score was 1.87 ± 0.57.

Q: For MCDIFAMLLIYQFDGKGTV, which amyloid nucleation score is on record?
A: The amyloid nucleation score was 0.151 ± 0.17.

Q: Which amyloid nucleation score does the source give for MCGNDWVYGDWIRSEIHGSS here?
A: Its amyloid nucleation score is -0.403 ± 0.59.

Q: For MCINIKKNMFR, which amyloid nucleation score is on record?
A: The amyloid nucleation score was 4.74 ± 0.048.

Q: With MCKYVMRVLHIVAG as the substance, how does the amyloid nucleation score read?
A: The amyloid nucleation score was 0.699 ± 0.42.

Q: For MCREYVFDNSPVT, which amyloid nucleation score is on record?
A: The amyloid nucleation score was -0.89 ± 1.2.

Q: With MCSKWDFQVLSHTDSWVWV as the substance, how does the amyloid nucleation score read?
A: The amyloid nucleation score was -0.67 ± 0.5.

Q: For MDAFPEFLGVVFHSDDFGVP, which amyloid nucleation score is on record?
A: Its amyloid nucleation score is -0.209 ± 0.39.

Q: Which amyloid nucleation score does the source give for MDKCIVSGVVESIFTGGAVI here?
A: The amyloid nucleation score was -0.361 ± 0.75.

Q: With MDTFSIMTYLAWQSNELLLI as the substance, how does the amyloid nucleation score read?
A: The amyloid nucleation score was 1.22 ± 0.23.

Q: Which amyloid nucleation score does the source give for MDVGIFMIMTVTRWKGCSVI here?
A: The amyloid nucleation score was 0.565 ± 0.48.

Q: For MEMLGGNRL, which amyloid nucleation score is on record?
A: Its amyloid nucleation score is 1.23 ± 0.36.

Q: For MFDGEIFSYFNCTIV, which amyloid nucleation score is on record?
A: The amyloid nucleation score was 5.67 ± 0.051.

Q: With MFEFKKPD as the substance, how does the amyloid nucleation score read?
A: The amyloid nucleation score was -0.015 ± 0.73.

Q: Which amyloid nucleation score does the source give for MFISIGLPPQRRQDSHGWGG here?
A: The amyloid nucleation score was 0.532 ± 0.37.

Q: Which amyloid nucleation score does the source give for MFMHELHMVDP here?
A: Its amyloid nucleation score is -0.873 ± 0.77.

Q: With MFVFFSTMSIR as the substance, how does the amyloid nucleation score read?
A: The amyloid nucleation score was “inactive”.

Q: Which amyloid nucleation score does the source give for MFVRPRESAEHMLGFRVYSG here?
A: The amyloid nucleation score was 0.452 ± 0.37.

Q: For MGDFND, which amyloid nucleation score is on record?
A: Its amyloid nucleation score is -1.08 ± 1.4.

Q: Which amyloid nucleation score does the source give for MGGSCTSEQYCDWANYGDVL here?
A: Its amyloid nucleation score is 0.125 ± 1.4.

Q: For MGGTLRNRRGTKVRSELGGD, which amyloid nucleation score is on record?
A: The amyloid nucleation score was -0.817 ± 1.7.

Q: With MGSVVHRKVEVHGRFKCGAT as the substance, how does the amyloid nucleation score read?
A: The amyloid nucleation score was 0.477 ± 0.93.

Q: With MHGISQPWHKLTMTGIRLAW as the substance, how does the amyloid nucleation score read?
A: The amyloid nucleation score was -0.463 ± 0.51.

Q: With MHRGALSTMQHLHEISLLSC as the substance, how does the amyloid nucleation score read?
A: The amyloid nucleation score was 0.886 ± 0.52.

Q: For MIAHLAPINRDAEYFINAIC, which amyloid nucleation score is on record?
A: Its amyloid nucleation score is -0.236 ± 0.27.

Q: With MIKSKM as the substance, how does the amyloid nucleation score read?
A: The amyloid nucleation score was -0.154 ± 0.61.

Q: With MIKSPTVKGFRMLCSVRGRD as the substance, how does the amyloid nucleation score read?
A: The amyloid nucleation score was -0.284 ± 0.44.

Q: Which amyloid nucleation score does the source give for MIVRSVILNDCWAGGACLHF here?
A: The amyloid nucleation score was 6.936 ± 0.047.

Q: For MKCYVFLKNWMWLVDYLDSI, which amyloid nucleation score is on record?
A: Its amyloid nucleation score is -0.991 ± 2.4.

Q: For MLACDVISPFCYVNWKRLCR, which amyloid nucleation score is on record?
A: The amyloid nucleation score was 2.43 ± 0.15.

Q: For MLFCVTRSVFSENCSLSLCT, which amyloid nucleation score is on record?
A: The amyloid nucleation score was “inactive”.

Q: For MLFRYRSPHTVWLIRLCMKQ, which amyloid nucleation score is on record?
A: Its amyloid nucleation score is 0.839 ± 0.56.

Q: Which amyloid nucleation score does the source give for MLGCFISFTIKLLG here?
A: Its amyloid nucleation score is 1.39 ± 0.11.

Q: Which amyloid nucleation score does the source give for MLGFYKSWCFNFSNMNVH here?
A: Its amyloid nucleation score is 0.979 ± 0.57.

Q: For MLRAGY, which amyloid nucleation score is on record?
A: Its amyloid nucleation score is -0.292 ± 0.63.

Q: Which amyloid nucleation score does the source give for MLTQPAEAKEARVSFCSLYM here?
A: Its amyloid nucleation score is 1.01 ± 0.53.

Q: For MLTWCPTSEKVVLLFRSQRG, which amyloid nucleation score is on record?
A: Its amyloid nucleation score is -0.383 ± 1.7.

Q: Which amyloid nucleation score does the source give for MLVAFAYFFGSHVRHWGFVW here?
A: The amyloid nucleation score was 0.224 ± 0.33.

Q: With MLWRYKRCNFARMFNLRVYV as the substance, how does the amyloid nucleation score read?
A: Its amyloid nucleation score is -0.822 ± 0.65.

Q: Which amyloid nucleation score does the source give for MLYFRVGVSFGLFVDNFVGF here?
A: The amyloid nucleation score was 2.12 ± 0.13.

Q: For MLYKIRDQIYIRHGSFEG, which amyloid nucleation score is on record?
A: The amyloid nucleation score was 0.224 ± 0.28.

Q: For MLYPNNKSVVLVVMELRPNA, which amyloid nucleation score is on record?
A: The amyloid nucleation score was 0.648 ± 0.52.

Q: Which amyloid nucleation score does the source give for MMFLTNCCFMVLNCYTCVRY here?
A: The amyloid nucleation score was 3.53 ± 0.066.

Q: Which amyloid nucleation score does the source give for MMSEYSYESFHMLII here?
A: Its amyloid nucleation score is -2.05 ± 1.4.

Q: Which amyloid nucleation score does the source give for MMSFVEKPQGESSSNEWGVN here?
A: The amyloid nucleation score was -0.777 ± 2.4.

Q: With MMVRGMW as the substance, how does the amyloid nucleation score read?
A: The amyloid nucleation score was 1.34 ± 0.35.

Q: For MNCVLIVVPRMTLGNYRSSW, which amyloid nucleation score is on record?
A: The amyloid nucleation score was 5.21 ± 0.053.

Q: For MNVTCDGRMGIQVDPVRYNR, which amyloid nucleation score is on record?
A: Its amyloid nucleation score is -0.122 ± 1.4.

Q: With MQFLVVLCQCQFLNRVRGCA as the substance, how does the amyloid nucleation score read?
A: The amyloid nucleation score was 1.5 ± 0.35.

Q: With MQKYPIRGRR as the substance, how does the amyloid nucleation score read?
A: The amyloid nucleation score was 1.64 ± 0.23.

Q: For MQRLLYACVHYRESAQVSTL, which amyloid nucleation score is on record?
A: The amyloid nucleation score was 1.93 ± 0.37.

Q: For MQTVNFVFTRLIFISDFTIQ, which amyloid nucleation score is on record?
A: The amyloid nucleation score was 0.688 ± 0.26.

Q: With MRFGLRYKALALRVFVEMTA as the substance, how does the amyloid nucleation score read?
A: The amyloid nucleation score was “inactive”.

Q: For MRFSPVPCLNF, which amyloid nucleation score is on record?
A: The amyloid nucleation score was 0.353 ± 0.43.

Q: For MRHRCGHRSVPG, which amyloid nucleation score is on record?
A: The amyloid nucleation score was -0.118 ± 0.68.

Q: With MRLCPEPASKSDMPFSRDLR as the substance, how does the amyloid nucleation score read?
A: Its amyloid nucleation score is 0.268 ± 1.4.

Q: Which amyloid nucleation score does the source give for MRLMVGYRRCFASLVKNVCT here?
A: Its amyloid nucleation score is -0.963 ± 1.8.

Q: With MRLNYGNITLSFGSPMMQTI as the substance, how does the amyloid nucleation score read?
A: The amyloid nucleation score was 0.682 ± 0.15.

Q: For MRMRKNEHYE, which amyloid nucleation score is on record?
A: Its amyloid nucleation score is 0.476 ± 0.46.

Q: For MRQQGWYTESTFVMCQFTGG, which amyloid nucleation score is on record?
A: The amyloid nucleation score was 2.04 ± 0.088.

Q: Which amyloid nucleation score does the source give for MRRHLGHLTLESGNHGCLQA here?
A: The amyloid nucleation score was “inactive”.

Q: With MRVHFLE as the substance, how does the amyloid nucleation score read?
A: Its amyloid nucleation score is 0.136 ± 0.41.

Q: For MRVTFHYFS, which amyloid nucleation score is on record?
A: The amyloid nucleation score was -0.434 ± 1.7.

Q: For MRVWKSILFDRSFFVFGLWR, which amyloid nucleation score is on record?
A: Its amyloid nucleation score is -0.543 ± 0.6.

Q: For MSDSRIVTVIVRRQPVSQRS, which amyloid nucleation score is on record?
A: Its amyloid nucleation score is 1.33 ± 0.84.

Q: With MSFTSAY as the substance, how does the amyloid nucleation score read?
A: Its amyloid nucleation score is -0.238 ± 0.56.

Q: For MSGWG, which amyloid nucleation score is on record?
A: The amyloid nucleation score was 0.167 ± 0.27.

Q: Which amyloid nucleation score does the source give for MSKINFFVNMAGL here?
A: Its amyloid nucleation score is 5.19 ± 0.062.

— the supplement of paper PMC12042874
